Test results reported in patent US20250002943.

Test system: Bxb1 integrase (serine recombinase) (Mycobacterium phage Bxb1?)
Assay: cell_activity

| Substance | activity (% mNeonGreen-positive cells) (attB on cargo recombined with genomic attP in hiPSCs, 0.01% without cargo and Bxb1 plasmids) | activity (% mNeonGreen-positive cells) (attP x attB recombination in hiPSCs, all components delivered with Cas9 RNP, 0.38% without attP ssODN template) |
| --- | --- | --- |
| Bxb1 attB site on circularised mNeonGreen cargo | 11.3 |  |
| Bxb1 attP site (58 nt, integrated at ACTR10 via ssODN) |  | 11.3 |
